Measured values: the DeepSol protein solubility set

experiment: soluble on expression in E. coli; label from the status in PepcDB or PDB records

Soluble on expression in E. coli, not soluble:
MGSDKIHHHHHHMERKTVLVIADLGGCPPHMFYKSAAEKYNLVSFIPRPFAITASHAALIEKYSVAVIKDKDYFKSLADFEHPDSIYWAHEDHNKPEEEVVEQIVKVAEMFGADAITTNNELFIAPMAKACERLGLRGAGVQAAENARDKNKMRDAFNKAGVKSIKNKRVTTLEDFRAALEEIGTPLILKPTYLASSIGVTLITDTETAEDEFNRVNDYLKSINVPKAVTFEAPFIAEEFLQGEYGDWYQTEGYSDYISIEGIMADGEYFPIAIHDKTPQIGFTETSHITPSILDEEAKKKIVEAAKKANEGLGLQNCATHTEIKLMKNREPGLIESAARFAGWNMIPNIKKVFGLDMAQLLLDVLCFGKDADLPDGLLDQEPYYVADCHLYPQHFKQNGQIPETAEDLVIEAIDIPDGLLKGDTEIVSFSAATPGTSVDLTLFEAFNSIAAFELKGSNSQDVAESIRQIQQHAKLTAKYVLPV
MGSDKIHHHHHHMERNTRVVKVANLKIGGNNPIIIQSMTNTNSADVEATVKQINNLEKVGCQLVRMTINNIKAAEAIKEIKKKVSLPLVADIHFDYRLALLAIKNGIDKLRINPGNIGSDENVKKVVEAAKEKNIPIRIGVNSGSIEKEILEKYGKPCVDALVESAMYHIRLLEKFDFFDIIVSLKSSNVKMMVEAYRKISSLVDYPLHLGVTEAGTKFQGTVKSAIGIGALLVDGIGDTLRVSLTENPVEEIKVAKEILKVLDLSDEGVEIISCPTCGRTEIDLIGLAKQVEEEFRTKKNKFKIAVMGCVVNGPGEAREADYGIAAGRGIGILFKKGEIIKKVSESNLLEELKKMISEDLENKKD
MGSDKIHHHHHHMERPILGKYIIKGKIILETGLRIGGQELGVNIGGIDNPVIRNPLTGEPYIPGSSVKGKMRSLMERLLNLDISGNKVRRHECEERECKVCRVFGSTSKEGNNIPSRLLVRDAFLTEDSKTKLLSMETDLPYTEWKTENALDRVTCKADPRSFERIPAGAEFEFEIIYTAENEKHIKEDLENIATALELLEDDYLGGNGSRGYGKVKFSIEKVIFKSADYYKGEGTPVEKEVKGGVEGFKKAIPEIVKG
MGSDKIHHHHHHMERVHVDIRQLQFFAEIVRYGSFTKAAERLHVAQPAVSMAMKKLEEELDLILFNRQERRISLTAEGEIFLRHAEKILDEVKSAETEMEELRGLAKGEVRVGIPPMMSAYFFPEIIRDFSNSYPDLHLTVSGEGASKIQKMIIDGELDMGVVAGASFPETLEVRRFLREEVIVCVPRSHPLASRGSLTLHEFARHPLIFYREGYYLRELILDVLRGAGLSPTIRFETNLYTLVKSLVQKGMGISVFLRMVVAEDDDLTAISLDPPLFLDLLIAWKKHGYLSRANRAFADYLLEKGSSAAL
MGSDKIHHHHHHMETLELQGAKLRYHQVGQGPVLIFIPGANGTGNIFLPLAEQLKDHFTVVAVDRRDYGESELTEPLPDSASNPDSDYRVKRDAQDIAELAKSLSDEPVYILGSSSGSIVAMHVLKDYPEVVKKIAFHEPPINTFLPDSTYWKDKNDDIVHQILTEGLEKGMKTFGETLNIAPIDAKMMSQPADTEEGRIEQYKRTMFWSEFEIRQYTHSDITLDDFTKYSDKITLLNGTDSRGSFPQDVNFYINKETGIPIVDIPGGHLGYIQKPEGFADVLLNMWG
MGSDKIHHHHHHMETLISGKNLKAYYVLDLWGSKKVVKAVDNVSLDILPNEIYGIAGESGCGKSTLLKALLALLDPPLRLMDGELLYNIEGRPTNVTLLKSETIRKLRWSFISYIPQGSMHVLNPVKRVRDTFIEILSSHVKKQTKEFLDLAVQHLKDLGLPERVLNMFPHQLSGGMRQRVTIALATVLKPRVIFADEPTTALDVVAQRAVMQLIRKIQNDLKNTVVLVTHDMGVHAQITTRMAIMYAGKIVEEGPTLEIFKNPLHPYTRYLIQSLPAIGDKKLRSGIPGSPPSLVAPPPGCRFHPRCPHASQRCREEEPLLKEIKPGHKVACFLMEG
MGSDKIHHHHHHMFAITGITGQVGGVVARALLAAGKDVRAVVRSAAKGAQWKEQGCEIAVAEMSDTQALSGAFSGVDGVFILLPPNFDPSPDFAESRHLVGTLRDALKQANPPKVVCLSTIGAQAAQPNLLQQLGYMEQQLGSLPMPIAFLRAGWFIENAAWDVEPARTAGVIPSFLQPLDKPVPMVATADVGRVAASMLQQAWTGKRIVELEGPRRITPNDLANTFARLLGKDVRMETVPRDTWEALFKSQGMKNPVPRMQMLDGFNEGWIEFETPDQTIKGNVTLETVLQSLIERVG
